{"source": "patent US20240307564A1", "about": "(SUZHOU TRANSCENTA THERAPEUTICS, published 2024)", "binders": {"B1": {"name": "18B10-HaLa (antibody, human IgG1, kappa, V domains shown)", "VH": "QVQLVQSGAEVKKPGASVKVSCKASGYTFTGYNMNWVRQAPGQGLEWMGNIDPYYGGTSYNQKFKGRVTMTIDKSTSTVYMELSSLRSEDTAVYYCARMYHGNAFDYWGQGTTVTVSS", "VL": "DIVMTQSPDSLAVSLGERATINCKSSQSLLNSGNLKNYLTWYQQKPGQPPKLLIYWASTRKSGVPDRFSGSGSGTDFTLTISSLQAEDVAVYYCQNDYSYPLTFGGGTKVEIKR", "notes": "humanized; variable regions fused with human IgG1 and human kappa constant regions; also called humanized 18B10 HaLa"}}, "key": {"human CLDN18.2 [1]": {"target": "human CLDN18.2 (human)", "assay": "cell-based or functional assay"}, "human CLDN18.2 [2]": {"target": "T1, human CLDN18.2 (human)", "T1 construct": "On HEK293-CLDN18.2 and MKN45-CLDN18.2 transfected cells and on the gastric cell lines NUGC4 and KATOIII (endogenous); also called Claudin18.2; claudin 18 splice variant 2", "assay": "KinExA on gastric cell lines"}}}
{"binder": "B1", "values": [{"measurement": "ADCC EC50 on NUGC4 cells", "setting": "human CLDN18.2 [1]", "value": "~0.59", "unit": "µg/mL"}, {"measurement": "ADCC reporter EC50", "setting": "human CLDN18.2 [1]", "value": 0.05, "unit": "µg/mL"}, {"measurement": "CDC activity", "setting": "human CLDN18.2 [1]", "value": "> 20", "unit": "fold"}, {"measurement": "fold higher affinity than IMAB362", "setting": "human CLDN18.2 [2]", "value": "> 8", "unit": "fold"}]}
